Laboratory results published in patent US20200407442A1 (WUXI BIOLOGICS IRELAND, published 2020).

T1: human LAG-3-ECD.D12.mFc mutant E146A (human, UniProt P18627 37-252)
T1 construct: Alanine scanning mutant; construct limits as for m26
T1 chain: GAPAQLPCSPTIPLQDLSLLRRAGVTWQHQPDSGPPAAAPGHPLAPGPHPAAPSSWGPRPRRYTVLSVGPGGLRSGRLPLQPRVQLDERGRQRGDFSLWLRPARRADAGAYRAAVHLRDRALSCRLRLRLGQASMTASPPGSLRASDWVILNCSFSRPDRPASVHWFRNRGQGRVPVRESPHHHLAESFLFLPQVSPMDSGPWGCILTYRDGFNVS

T2: human LAG-3-ECD.D12.mFc mutant G145A (human, UniProt P18627 37-252)
T2 construct: Alanine scanning mutant; construct limits as for m26
T2 chain: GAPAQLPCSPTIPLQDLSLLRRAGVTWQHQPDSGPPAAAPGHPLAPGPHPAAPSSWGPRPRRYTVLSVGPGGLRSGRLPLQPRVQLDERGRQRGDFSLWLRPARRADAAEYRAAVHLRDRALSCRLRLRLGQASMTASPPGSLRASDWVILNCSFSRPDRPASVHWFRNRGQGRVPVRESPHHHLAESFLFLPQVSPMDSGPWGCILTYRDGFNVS

T3: full-length human LAG-3 on cells (human, UniProt P18627 23-525)
T3 construct: Expressed on Flp-In-293, CHO or 293F transfectants; also called hPro1.FL; cell surface human LAG-3
T3 sequence: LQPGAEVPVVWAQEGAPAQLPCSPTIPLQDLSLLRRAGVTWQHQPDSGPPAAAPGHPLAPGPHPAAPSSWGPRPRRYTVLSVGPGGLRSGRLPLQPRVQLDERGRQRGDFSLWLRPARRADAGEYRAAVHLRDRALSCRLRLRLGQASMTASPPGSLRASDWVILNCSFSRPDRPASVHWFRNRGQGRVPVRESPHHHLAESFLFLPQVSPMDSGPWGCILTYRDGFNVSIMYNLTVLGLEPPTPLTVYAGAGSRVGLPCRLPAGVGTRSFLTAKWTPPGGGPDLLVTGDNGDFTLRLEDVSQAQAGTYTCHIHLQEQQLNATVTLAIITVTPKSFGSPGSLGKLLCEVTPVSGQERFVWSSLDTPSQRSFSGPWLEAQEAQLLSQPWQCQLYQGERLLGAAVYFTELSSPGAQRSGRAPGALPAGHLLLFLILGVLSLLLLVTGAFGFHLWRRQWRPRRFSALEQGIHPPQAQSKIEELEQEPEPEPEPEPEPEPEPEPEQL

T4: Variant 3: xPro1.FL-x3 (human; mouse)
T4 construct: Chimeric full-length LAG-3 on transfected 293F cells
T4 chain: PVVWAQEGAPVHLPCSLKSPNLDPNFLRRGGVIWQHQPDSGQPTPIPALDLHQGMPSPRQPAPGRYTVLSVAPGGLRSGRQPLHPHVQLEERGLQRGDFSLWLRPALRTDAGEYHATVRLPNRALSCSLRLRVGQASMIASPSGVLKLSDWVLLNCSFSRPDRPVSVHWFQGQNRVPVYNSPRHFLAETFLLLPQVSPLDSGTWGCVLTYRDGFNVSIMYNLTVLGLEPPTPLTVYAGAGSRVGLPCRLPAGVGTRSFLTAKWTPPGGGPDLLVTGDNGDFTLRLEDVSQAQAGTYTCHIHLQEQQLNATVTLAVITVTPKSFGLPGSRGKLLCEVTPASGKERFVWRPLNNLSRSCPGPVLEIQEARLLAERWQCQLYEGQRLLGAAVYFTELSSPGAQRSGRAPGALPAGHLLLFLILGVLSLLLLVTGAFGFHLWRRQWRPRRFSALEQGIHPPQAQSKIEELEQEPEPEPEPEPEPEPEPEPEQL


Legend:
[1] = target: T1, human LAG-3-ECD.D12.mFc mutant E146A; assay: ELISA, antibody coated, LAG-3 D12.mFc mutant in supernatant, normalised to control mutants
Description: (§1) For ELISA binding assay, the antibody 1.53.3-uAb-IgG4k or 3.40.19-uAb-hIgG4L (2 μg/mL) was coated in plates. After interacting with the supernatant that contains quantified LAG-3 mutants or human LAG-3-ECD.D12.mFc protein, HRP conjugated anti-mFc antibody (1:5000; Bethyl, USA) was added as a detection antibody. Absorbance was normalized according to the average absorbance of control mutants. After setting an additional cutoff to the binding fold change (<0.75), the final determined epitope residues were identified.

[2] = target: T2, human LAG-3-ECD.D12.mFc mutant G145A; assay: as above
Description: as §1

human CD4 = target: T5, human CD4 (human, UniProt P01730 26-390, limits assumed); assay: ELISA on plate-coated human CD4, OD450
T5 construct: also called human CD4 protein
Description: Cross-reactivity to human CD4 was measured by ELISA. Plates were coated with human CD4 at 1μg/mL overnight at 4° C. After blocking and washing, 1 μg/mL of LAG-3 antibodies were added to the plates and incubated at room temperature for 1 h. The plates were then washed and subsequently incubated with corresponding secondary antibody for 45 min. After washing, TMB substrate was added and the color reaction was stopped by 2 M HCl. The absorbance at 450 nm was read using a microplate reader.

[3] = target: T3, full-length human LAG-3 on cells; assay: FACS on human LAG-3 transfectant cells
Description: Various concentrations of testing antibodies, positive and negative controls were added to human LAG-3 transfectant cells, and then the binding of antibodies onto the surface of the cells was detected by corresponding PE-labeled secondary antibodies.

Variant 3: xPro1.FL-x3 = target: T4, Variant 3: xPro1.FL-x3; assay: FACS, 1 ug/mL antibody, transfected 293F cells

| Fold Change [1] | Fold Change [2] | binding result (human CD4) | EC50 [3] | MFI (Variant 3: xPro1.FL-x3) | PE+ % (Variant 3: xPro1.FL-x3) | Binder |
| --- | --- | --- | --- | --- | --- | --- |
| 0.582 | 0.466 | no binding (tested: 66.7 nM) | 0.13 nM | – | – | 3.40.19-uAb-IgG4L (antibody, V domains shown, Fully human antibody from OMT rats; IgG4 lambda by its name; also called 3.40.19-uAb-hIgG4L) VH: QLQLQESGPGLVKPSETLSLTCTVSGDSISSTSYYWGWIRQPPGKGLEWIGSFYYSGSTYYNPSLKSRVTISVDTSKNQFSLKLNSVTAADTAVYYCARMQLWSYDVDVWGQGTTVTVSS VL: QSALTQPASVSGSPGQSITISCTGTSSDVGGYDYVAWYQQHPGKVPKLMIYDVSERPSGVSNRFSGSKSGNTASLTISGLQAEDEADYYCSSYTSTTTLVVFGGGTKLSVL |
| 0.701 | 0.692 | no binding (tested: 66.7 nM) | 0.43 nM | 41.7 | 2.03% | 1.53.3-uAb-IgG4k (antibody, V domains shown, Fully human antibody from OMT rats; IgG4 kappa by its name) VH: QVQLQQWGAGLLKPSETLSLTCGVYGGSFSGYYWSWIRQPPGMGLEWIGEINHRGNTNYNPSLKSRVTISEDTSKNQFSLRLSSVTAADTAVYFCTRGEDYSDYDYYGDFWGQGTLVTVSS VL: EIVLTQSPATLSLSQGERATLSCRASQSISSYLAWYQQKPGQAPRLLIYAASNRATGIPARFSGSGSGTDFTLTISSLEPEDFAIYYCQQRSNWPLTFGGGTKVEIK |
